Holding throughout (format): physicochemical
Data set [1] is described as follows: Transmission electron microscopy (TEM) of negatively stained aggregate. An excerpt: The insert is an enlarged image.
Data set [2] is described as follows: Small-angle X-ray scattering (SAXS) of polypeptide in solution. As to the method: The black circles represent experimental data and the red line represents X-ray scattering data of the most likely model obtained using DAMMIF.
As shown in FIG. 10 and FIG. 11, a form factor (P(q)) and an electron pair distance distribution function p(r) were obtained to investigate the shape and size of the polypeptide prepared in Example 2 (ODβ-S).
For the polypeptide prepared in Example 2 (ODβ-S), Rg,p(r) was calculated to be 11.01±0.078 Å and Dmax was calculated to be 34.0 Å.

A short description of data set [3]: Diffusion-ordered spectroscopy (DOSY) in solution.

Non-standard residues stand in square brackets, D forms with d. No end group written: not given here. ebes = not defined here

In the case of “Comparative Example 2: comparative naturally directed β-α-β polypeptide WKWEWYWKWEW-GSGS-A(EAAAK)2A-GS-... (SEQ ID NOS 13 and 3) (chain 1 WKWEWYWKWEWGSGSAEAAAKEAAAKAGSK; chain 2 WEWKWYWEWKW; also: chain 2 joined at Lys30 side chain (εK branch))”, the aggregate morphology entry in data set [1] was “forms a heterogeneous structure and exists mainly as large-sized aggregates”.
Take “Example 2: short polypeptide WKWEW-GSGS-(ebes)GS-εK- with oppositely directed WEWKW (SEQ ID NOS 9 and 10) (chain 1 WKWEWGSGS[ebes]GSK; numbers in words are those of the source; reading uncertain; also: K12 εK branch carrying oppositely directed WEWKW strand (chain 2), printed as WKWEW-GSGS-(ebes)GS-εK-)”: the aggregation state result in data set [2] was “exists as monomers rather than as aggregates”. For the same substance, the Dmax in data set [2] (from p(r)) is 34.0 Å. In addition, the “Rg,p(r)” value in data set [2] (from p(r) using GNOM) was determined as 11.01±0.078 Å. Also, in data set [3], the “D (diffusion coefficient)” value was 1.625×10^−10 m^2/s and the “hydrodynamic radius R(H)” value is recorded as 12.27 Å.

The values above are taken from US9822149B2, “Polypeptide having multiple directionality and self-assembled nanostructure containing the same” (INDUSTRY-ACADEMIC COOPERATION FOUNDATION, YONSEI UNIVERSITY, priority 2014, dated 2017).
